The results in this text go back to publication PMC5496025, “Abstracts from the 10th C1-inhibitor deficiency workshop” (Allergy, Asthma, and Clinical Immunology : Official Journal …, 2017).

Assay [1] has as its target human bradykinin B2 receptor mutant #2 (found in HAE patients) (human) (UniProt P30411). Description: radioligand binding; competition binding with radiolabeled BK (3H-BK); HEK293T cells transiently transfected with human wild-type or mutant B2R.
The target in assay [2] is human bradykinin B2 receptor mutant #1 (found in HAE patients) (human) (UniProt P30411). The assay is described as above.
Sequence of human bradykinin B2 receptor mutant #1 (found in HAE patients) (human) (P30411 whole entry, change not shown): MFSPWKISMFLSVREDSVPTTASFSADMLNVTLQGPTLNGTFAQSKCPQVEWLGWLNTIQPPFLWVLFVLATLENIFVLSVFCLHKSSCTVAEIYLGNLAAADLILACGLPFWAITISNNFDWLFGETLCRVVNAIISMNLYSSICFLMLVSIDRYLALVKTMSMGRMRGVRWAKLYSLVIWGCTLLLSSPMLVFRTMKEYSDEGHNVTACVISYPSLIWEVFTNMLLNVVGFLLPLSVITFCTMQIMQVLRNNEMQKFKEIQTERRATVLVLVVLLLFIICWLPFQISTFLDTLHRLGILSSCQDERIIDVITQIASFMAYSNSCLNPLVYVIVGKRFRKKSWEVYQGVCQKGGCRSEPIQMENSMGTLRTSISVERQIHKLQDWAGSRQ
Assay [3] concerns the target T1, commercially available active FXI (UniProt P03951 19-625).
T1 construct: active coagulation factor XI (cleaved into disulfide-linked heavy and light chains); also called active factor XI; source: bought: commercially available
Briefly: SDS-PAGE of enzyme/C1-INH complexes; molar equivalent quantities of active enzymes and of C1-INH. The following applies: both partners purified.

T1 sequence (P03951 19-625): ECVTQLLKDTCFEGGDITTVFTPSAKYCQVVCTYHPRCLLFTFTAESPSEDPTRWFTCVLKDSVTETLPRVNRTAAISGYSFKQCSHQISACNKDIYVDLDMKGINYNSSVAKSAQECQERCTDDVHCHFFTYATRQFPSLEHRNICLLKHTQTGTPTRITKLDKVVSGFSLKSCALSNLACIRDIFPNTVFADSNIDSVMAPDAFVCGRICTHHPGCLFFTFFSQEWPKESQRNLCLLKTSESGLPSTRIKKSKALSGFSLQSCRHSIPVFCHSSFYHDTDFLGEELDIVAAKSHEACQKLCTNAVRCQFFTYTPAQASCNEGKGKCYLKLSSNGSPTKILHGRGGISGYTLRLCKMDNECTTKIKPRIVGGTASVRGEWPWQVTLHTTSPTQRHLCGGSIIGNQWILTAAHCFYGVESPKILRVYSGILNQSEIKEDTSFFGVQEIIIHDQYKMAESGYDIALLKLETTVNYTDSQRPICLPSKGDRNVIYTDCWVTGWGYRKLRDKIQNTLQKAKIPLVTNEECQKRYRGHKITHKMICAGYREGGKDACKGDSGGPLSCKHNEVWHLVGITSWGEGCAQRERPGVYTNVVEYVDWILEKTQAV
Sequence of human bradykinin B2 receptor mutant #2 (found in HAE patients) (human) (P30411 whole entry, stated change not applied): as the sequence (P30411 whole entry, change not shown) above

“Bradykinin (from UniProt P01042 381-389) (peptide)”: the affinity in assay [1] was 0.46 nM; in assay [2] it was 0.35 nM.

B1: commercial plasma-derived C1-INH, further purified by ion-exchange chromatography (natural protein, UniProt P05155 23-500, looked up)
chain: NPNATSSSSQDPESLQDRGEGKVATTVISKMLFVEPILEVSSLPTTNSTTNSATKITANTTDEPTTQPTTEPTTQPTIQPTQPTTQLPTDSPTQPTTGSFCPGPVTLCSDLESHSTEAVLGDALVDFSLKLYHAFSAMKKVETNMAFSPFSIASLLTQVLLGAGENTKTNLESILSYPKDFTCVHQALKGFTTKGVTSVSQIFHSPDLAIRDTFVNASRTLYSSSPRVLSNNSDANLELINTWVAKNTNNKISRLLDSLPSDTRLVLLNAIYLSAKWKTTFDPKKTRMEPFHFKNSVIKVPMMNSKKYPVAHFIDQTLKAKVGQLQLSHNLSLVILVPQNLKHRLEDMEQALSPSVFKAIMEKLEMSKFQPTLLTLPRIKVTTSQDMLSIMEKLEFFDFSYDLNLCGLTEDPDLQVSAMQHQTVLELTETGVEAAAASAISVARTLLVFEVQQPFLFVLWDQQHKFPVFMGRVYDPRA
notes: source: bought: commercial plasma-derived C1-INH, further purified by ion-exchange chromatography
As to B1, the binding result in assay [3] is recorded as “binds”.
